No end group written: not given here.
Key:
p75-TM-C257A (human) = test: NMR cross-correlated relaxation rates
NMR titration = molecular target: the molecule itself; test: NMR titration

Molecule	stoichiometry N (p75-TM-C257A (human))	binding result (NMR titration)
p75-TM-C257A (domain or fragment)	2	–
MKKDETPFGVSVAVGLAVFACLFLSTLLLVLNKAGRRNK (domain or fragment, also: 15N-labelled in one titration, unlabelled in the other) [human TrkA-TM]	–	binds

From publication doi:10.1101/2021.05.24.445441 (bioRxiv, 2021)
